Starred links: 1 amine or outer side, 2 acyl side, 3 side chain; linkers in the order of their positions; H or OH if unused. Non-standard residues stand in square brackets, D forms with d. Groups on a side chain read outwards from the residue. No end group written: not given here. *: point of attachment. C20 diacid = O=C(O)CCCCCCCCCCCCCCCCCCC(=O)*; αMePhe(2-F) = C[C@](N)(Cc1ccccc1F)C(=O)O; γGlu = O=C(O)[C@H](CCC(=O)[*:2])N[*:1]; αMeF = C[C@](N)(Cc1ccccc1)C(=O)O; 4Pal = N[C@@H](Cc1ccncc1)C(=O)O; AEEA = NCCOCCOCC(=O)O; Aib = CC(C)(N)C(=O)O

One test concerns the target T1, human glucagon receptor (human, UniProt P47871 26-477).
T1 construct: whole, on cells; Assayed as crude membranes of stably transfected HEK293 cells; also called hGcgR; GcgR
In words: SPA, displacement of [125I]-Gcg from hGcgR membranes, 0.1% bacitracin. In short, it runs like this: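 Binding buffer: 25 mM HEPES pH 7.4, 2.5 mM CaCl₂, 1 mM MgCl₂, 0.003% Tween-20, protease inhibitors without EDTA. Counted by scintillation after 12 h incubation/settling at room temperature. Four-parameter nonlinear fit; Kᵢ given as geometric mean ± SEM of independent replicates run on different days.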

Test [1] deals with T2, human glucose-dependent insulinotropic polypeptide (GIP) receptor (human, UniProt P48546 22-466).
T2 construct: whole, on cells; Assayed as crude membranes of stably transfected CHO cells; also called hGIPR; human GIP receptor
T2 sequence (looked up): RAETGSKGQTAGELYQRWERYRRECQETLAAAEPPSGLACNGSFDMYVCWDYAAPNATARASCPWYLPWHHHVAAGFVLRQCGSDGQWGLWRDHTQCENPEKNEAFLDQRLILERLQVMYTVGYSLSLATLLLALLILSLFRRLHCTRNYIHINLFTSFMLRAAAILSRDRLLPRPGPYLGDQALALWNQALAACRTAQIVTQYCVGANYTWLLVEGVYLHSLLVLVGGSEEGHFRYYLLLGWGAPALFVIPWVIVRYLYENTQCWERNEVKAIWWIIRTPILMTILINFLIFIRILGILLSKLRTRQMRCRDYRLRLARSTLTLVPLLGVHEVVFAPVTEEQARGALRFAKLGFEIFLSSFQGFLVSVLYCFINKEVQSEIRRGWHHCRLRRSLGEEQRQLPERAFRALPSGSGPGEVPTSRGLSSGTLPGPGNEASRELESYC
Nature of the test: SPA, displacement of [125I]-GIP from hGIPR membranes, 0.1% bacitracin. On the technique in general: Loss of bound radioactivity is the signal in a displacement assay; it reports binding, not function.

The next test concerns the target T3, human GLP-1 receptor (human, UniProt P43220 24-463).
T3 construct: whole, on cells; Assayed as crude membranes of stably transfected HEK293 cells; also called hGLP1R; hGLP-1R
In words: SPA, displacement of [125I]-GLP-1 from hGLP-1R membranes, 0.1% bacitracin. In short, it runs like this: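 Binding buffer: 25 mM HEPES pH 7.4, 2.5 mM CaCl₂, 1 mM MgCl₂, 0.1% bacitracin, 0.003% Tween-20, protease inhibitors without EDTA. Four-parameter nonlinear regression; Kᵢ given as geometric mean ± SEM, n = independent replicates run on different days.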

T1 sequence (P47871 26-477): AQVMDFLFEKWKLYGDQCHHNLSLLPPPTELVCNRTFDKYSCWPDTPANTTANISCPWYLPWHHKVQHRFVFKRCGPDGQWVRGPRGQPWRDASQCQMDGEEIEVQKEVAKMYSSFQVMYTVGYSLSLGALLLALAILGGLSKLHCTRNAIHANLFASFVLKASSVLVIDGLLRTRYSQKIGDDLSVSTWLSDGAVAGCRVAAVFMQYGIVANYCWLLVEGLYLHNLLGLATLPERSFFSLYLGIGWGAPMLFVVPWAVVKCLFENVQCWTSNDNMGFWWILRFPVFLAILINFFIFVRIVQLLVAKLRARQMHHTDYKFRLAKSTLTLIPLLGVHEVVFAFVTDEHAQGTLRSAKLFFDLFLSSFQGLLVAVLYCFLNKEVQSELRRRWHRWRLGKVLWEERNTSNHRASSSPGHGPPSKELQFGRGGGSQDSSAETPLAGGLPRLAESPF

B1: Example 44 (peptide)
peptide: Y[Aib]EGT[αMeF]ISDYSIALDKK([AEEA-AEEA-γGlu-C20 diacid])HQ[Aib]DFVE[4Pal]LLEGGPSSGAPPPS-NH2
modifications: N-terminus assumed
SMILES: CC[C@H](C)[C@H](NC(=O)[C@H](CO)NC(=O)[C@H](Cc1ccc(O)cc1)NC(=O)[C@H](CC(=O)O)NC(=O)[C@H](CO)NC(=O)[C@@H](NC(=O)[C@](C)(Cc1ccccc1)NC(=O)[C@@H](NC(=O)CNC(=O)[C@H](CCC(=O)O)NC(=O)C(C)(C)NC(=O)[C@@H](N)Cc1ccc(O)cc1)[C@@H](C)O)[C@@H](C)CC)C(=O)N[C@@H](C)C(=O)N[C@@H](CC(C)C)C(=O)N[C@@H](CC(=O)O)C(=O)N[C@@H](CCCCN)C(=O)N[C@@H](CCCCNC(=O)COCCOCCNC(=O)COCCOCCNC(=O)CC[C@H](NC(=O)CCCCCCCCCCCCCCCCCCC(=O)O)C(=O)O)C(=O)N[C@@H](Cc1c[nH]cn1)C(=O)N[C@@H](CCC(N)=O)C(=O)NC(C)(C)C(=O)N[C@@H](CC(=O)O)C(=O)N[C@@H](Cc1ccccc1)C(=O)N[C@H](C(=O)N[C@@H](CCC(=O)O)C(=O)N[C@@H](Cc1ccncc1)C(=O)N[C@@H](CC(C)C)C(=O)N[C@@H](CC(C)C)C(=O)N[C@@H](CCC(=O)O)C(=O)NCC(=O)NCC(=O)N1CCC[C@H]1C(=O)N[C@@H](CO)C(=O)N[C@@H](CO)C(=O)NCC(=O)N[C@@H](C)C(=O)N1CCC[C@H]1C(=O)N1CCC[C@H]1C(=O)N1CCC[C@H]1C(=O)N[C@@H](CO)C(N)=O)C(C)C
Regarding B1, the Ki turned out to be 50 nM with human glucagon receptor, 0.059 nM in test [1] and 209 nM with human GLP-1 receptor.

B2: Example 33 (peptide)
peptide: Ac-[dY]AEGT[αMePhe(2-F)]ISDYSIALDKK([AEEA-AEEA-γGlu-C20 diacid])HQ[Aib]EFVNYLLEGGPSSGAPPPS-NH2
SMILES: CC[C@H](C)[C@H](NC(=O)[C@H](CO)NC(=O)[C@H](Cc1ccc(O)cc1)NC(=O)[C@H](CC(=O)O)NC(=O)[C@H](CO)NC(=O)[C@@H](NC(=O)[C@](C)(Cc1ccccc1F)NC(=O)[C@@H](NC(=O)CNC(=O)[C@H](CCC(=O)O)NC(=O)[C@H](C)NC(=O)[C@@H](Cc1ccc(O)cc1)NC(C)=O)[C@@H](C)O)[C@@H](C)CC)C(=O)N[C@@H](C)C(=O)N[C@@H](CC(C)C)C(=O)N[C@@H](CC(=O)O)C(=O)N[C@@H](CCCCN)C(=O)N[C@@H](CCCCNC(=O)COCCOCCNC(=O)COCCOCCNC(=O)CC[C@H](NC(=O)CCCCCCCCCCCCCCCCCCC(=O)O)C(=O)O)C(=O)N[C@@H](Cc1c[nH]cn1)C(=O)N[C@@H](CCC(N)=O)C(=O)NC(C)(C)C(=O)N[C@@H](CCC(=O)O)C(=O)N[C@@H](Cc1ccccc1)C(=O)N[C@H](C(=O)N[C@@H](CC(N)=O)C(=O)N[C@@H](Cc1ccc(O)cc1)C(=O)N[C@@H](CC(C)C)C(=O)N[C@@H](CC(C)C)C(=O)N[C@@H](CCC(=O)O)C(=O)NCC(=O)NCC(=O)N1CCC[C@H]1C(=O)N[C@@H](CO)C(=O)N[C@@H](CO)C(=O)NCC(=O)N[C@@H](C)C(=O)N1CCC[C@H]1C(=O)N1CCC[C@H]1C(=O)N1CCC[C@H]1C(=O)N[C@@H](CO)C(N)=O)C(C)C
Turning to B2, the inhibition constant Ki with human glucagon receptor stood at 63.5 nM; in test [1] it was 0.0369 nM; with human GLP-1 receptor, 31.2 nM.

One may read the Ki as the equilibrium dissociation constant of an inhibitor or competing ligand from its target. Lower therefore signals tighter binding.
